From paper PMC4215112 (2014)

B1: M0418 scFv-Fcε fusion protein [human] / Bet v 1.0101 peptide I56 to D69 [modified: biotin at the N-terminus, before the additional glycine; biotin at the N-terminus, before the additional glycine] [birch] (parent complex)
chain 1: QVQLVQSGAEVKKPGESLKISCKGSEYSFPNYWIAWVRQMPGKGLEWMGMIYPGDSDTRYSPSFQGQVNISADKSSRTAFLEWSSLKASDSATYFCARLGGQLWNSYYYYYYMDVWGKGTTVTVSSGGGGSGGGGSGGGGSSYELTQPPSASGTPGQRVTISCSGSSSNIGGNTVNWYQQVPGTAPRLLIYKNNQRPSGVPDRFSGSKSGTSASLAISGLRSEDEADYYCEAWDGGLRGGVFGGGTKLTVLGDYKDDDDKAAA
chain 2: GISFPEGFPFKYVKDG

Variants of: B1
Experiment: ELISA; parent: 3.4; read off a plot

| Variant | response |
| --- | --- |
| chain 2 GISFPKGFPFKYVKDG [chain 2 E6K] | ~3.4 Absorbance (450 nm) |
| chain 2 GISFSEGFPFKYVKDG [chain 2 P5S] | ~0.17 Absorbance (450 nm) |
| chain 2 GISFPEGFPVKYVKDG [chain 2 F10V] | ~3.4 Absorbance (450 nm) |
| chain 2 GISFPEGFPFRYVKDG [chain 2 K11R] | ~0.22 Absorbance (450 nm) |
| chain 2 GINFPEGFPFKYVKDG [chain 2 S3N] | ~3.4 Absorbance (450 nm) |
| chain 2 GISFPEGFPFEYVKDG [chain 2 K11E] | ~2 Absorbance (450 nm) |
| chain 2 GISFPEGLPFKYVKDG [chain 2 F8L] | ~0.2 Absorbance (450 nm) |
| chain 2 GISFPEGFPFKYVKEG [chain 2 D15E] | ~3.4 Absorbance (450 nm) |
| chain 2 GITFPEGFPFKYVKDG [chain 2 S3T] | ~3.4 Absorbance (450 nm) |
| chain 2 GISFPEGSPFKYVKDG [chain 2 F8S] | ~0.22 Absorbance (450 nm) |
| chain 2 GISFPEGIPFKYVKDG [chain 2 F8I] | ~2.8 Absorbance (450 nm) |
